Measurements: publication PMC9875831
Like-named read-outs stand apart in the source and are kept apart here.

Legend:
Assay in all cases: FRET or BRET
[1] = biological target: A2AR-D2R heteromer (A2AR-Rluc with D2R-GFP2) (human) (UniProt P29274)
[2] = biological target: A2AR-Rluc (adenosine A2A receptor fused to Renilla luciferase) (human) (UniProt P29274)
[3] = biological target: A2AR-D2R heteromer (A2AR-Rluc with D2R-GFP2) (human) (UniProt P29274); remark: listed apart in the source
[4] = biological target: D2R-Rluc (dopamine D2 receptor, long isoform, fused to Renilla luciferase) (human) (UniProt P14416)
Sequence of UniProt P14416 (P14416 whole entry, the tested form may be a part, canonical isoform): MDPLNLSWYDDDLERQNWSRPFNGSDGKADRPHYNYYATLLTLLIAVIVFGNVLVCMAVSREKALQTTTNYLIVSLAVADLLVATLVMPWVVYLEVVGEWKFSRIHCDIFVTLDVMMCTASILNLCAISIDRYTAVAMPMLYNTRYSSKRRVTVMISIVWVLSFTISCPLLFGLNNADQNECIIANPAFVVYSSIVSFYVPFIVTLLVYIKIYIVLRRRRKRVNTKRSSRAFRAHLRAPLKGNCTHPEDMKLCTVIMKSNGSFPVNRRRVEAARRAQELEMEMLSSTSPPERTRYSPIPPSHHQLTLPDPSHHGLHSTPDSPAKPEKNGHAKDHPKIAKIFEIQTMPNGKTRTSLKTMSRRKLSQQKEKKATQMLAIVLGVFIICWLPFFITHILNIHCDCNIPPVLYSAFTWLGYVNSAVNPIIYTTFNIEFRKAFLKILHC

| SRET50 [1] | BRET50 [2] | SRET50 [3] | BRET50 [4] | Substance |
| --- | --- | --- | --- | --- |
| 38.5 | 40.5 | 25.1 | 25.7 | calneuron-1-YFP (from UniProt Q9BXU9 1-261) (natural protein) |
| 24.1 | 42.4 | 8.9 | 23.4 | NCS-1-YFP (neuronal calcium sensor 1 fused to yellow fluorescent protein) (from UniProt P62166 1-190) (natural protein) |
